Measured values published in IntAct's records for PubMed 22582013.

B1: Extracellular serine/threonine protein kinase FAM20C (Homo sapiens), Q8IXL6 (parent)
chain: MKMMLVRRFRVLILMVFLVACALHIALDLLPRLERRGARPSGEPGCSCAQPAAEVAAPGWAQVRGRPGEPPAASSAAGDAGWPNKHTLRILQDFSSDPSSNLSSHSLEKLPPAAEPAERALRGRDPGALRPHDPAHRPLLRDPGPRRSESPPGPGGDASLLARLFEHPLYRVAVPPLTEEDVLFNVNSDTRLSPKAAENPDWPHAGAEGAEFLSPGEAAVDSYPNWLKFHIGINRYELYSRHNPAIEALLHDLSSQRITSVAMKSGGTQLKLIMTFQNYGQALFKPMKQTREQETPPDFFYFSDYERHNAEIAAFHLDRILDFRRVPPVAGRMVNMTKEIRDVTRDKKLWRTFFISPANNICFYGECSYYCSTEHALCGKPDQIEGSLAAFLPDLSLAKRKTWRNPWRRSYHKRKKAEWEVDPDYCEEVKQTPPYDSSHRILDVMDMTIFDFLMGNMDRHHYETFEKFGNETFIIHLDNGRGFGKYSHDELSILVPLQQCCRIRKSTYLRLQLLAKEEYKLSLLMAESLRGDQVAPVLYQPHLEALDRRLRVVLKAVRDCVERNGLHSVVDDDLDTEHRAASAR

Variants of: B1
Details: with ostp_human SPP1, P10451
Chain of ostp_human SPP1, P10451 (P10451 whole entry): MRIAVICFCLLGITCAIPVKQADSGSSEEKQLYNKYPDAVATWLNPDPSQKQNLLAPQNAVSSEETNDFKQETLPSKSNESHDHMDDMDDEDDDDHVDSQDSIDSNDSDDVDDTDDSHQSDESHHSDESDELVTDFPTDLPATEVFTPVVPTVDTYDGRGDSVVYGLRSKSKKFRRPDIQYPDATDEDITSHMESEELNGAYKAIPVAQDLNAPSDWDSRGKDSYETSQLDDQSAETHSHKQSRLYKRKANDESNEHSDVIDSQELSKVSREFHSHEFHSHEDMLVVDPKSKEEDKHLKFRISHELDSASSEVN

effect of a mutation on the interaction	Variant
with no effect	MKMMLVRRFRVLILMVFLVACALHIALDLLPRLERRGARPSGEPGCSCAQPAAEVAAPGWAQVRGRPGEPPAASSAAGDAGWPNKHTLRILQDFSSDPSSNLSSHSLEKLPPAAEPAERALRGRDPGALRPHDPAHRPLLRDPGPRRSESPPGPGGDASLLARLFEHPLYRVAVPPLTEEDVLFNVNSDTRLSPKAAENPDWPHAGAEGAEFLSPGEAAVDSYPNWLKFHIGINRYELYSRHNPAIEALLHDLSSQRITSVAMKSGGTQLKLIMTFQNYGQALFKPMKQTREQETPPDFFYFSDYERHNAEIAAFHLDRILDFRRVPPVAGRMVNMTKEIRDVTRDKKLWRTFFISPANNICFYGECSYYCSTEHALCGKPDQIEGSLAAFLPDLSLAKRKTWRNPWRRSYHKRKKAEWEVDPDYCEEVKQTPPYDSSHRILDVMDMTIFDFLMGNMDRHHYETFEKFGNETFIIHLDNGRGFGKYSHDELSILVPLQQCCRIRKSTYLRLQLLAKEEYKLSLLMAESLRGDQVAPVLYQPHLEALDRWLRVVLKAVRDCVERNGLHSVVDDDLDTEHRAASAR [R549W]
with no effect	MKMMLVRRFRVLILMVFLVACALHIALDLLPRLERRGARPSGEPGCSCAQPAAEVAAPGWAQVRGRPGEPPAASSAAGDAGWPNKHTLRILQDFSSDPSSNLSSHSLEKLPPAAEPAERALRGRDPGALRPHDPAHRPLLRDPGPRRSESPPGPGGDASLLARLFEHPLYRVAVPPLTEEDVLFNVNSDTRLSPKAAENPDWPHAGAEGAEFLSPGEAAVDSYPNWLKFHIGINRYELYSRHNPAIEALLHDLSSQRITSVAMKSGGTQLKLIMTFQNYGQALFKPMKQTREQETPPDFFYFSDYERHNAEIAAFHLDRILDFRRVPPVAGRMVNMTKEIRDVTRDKKLWRTFFISPANNICFYGECSYYCSTEHALCGKPDQIEGSLAAFLPDLSLAKRKTWRNPWRRSYHKRKKAEWEVDPDYCEEVKQTPPYDSSHRILDVMDMTIFNFLMGNMDRHHYETFEKFGNETFIIHLDNGRGFGKYSHDELSILVPLQQCCRIRKSTYLRLQLLAKEEYKLSLLMAESLRGDQVAPVLYQPHLEALDRRLRVVLKAVRDCVERNGLHSVVDDDLDTEHRAASAR [D451N]
with no effect	MKMMLVRRFRVLILMVFLVACALHIALDLLPRLERRGARPSGEPGCSCAQPAAEVAAPGWAQVRGRPGEPPAASSAAGDAGWPNKHTLRILQDFSSDPSSNLSSHSLEKLPPAAEPAERALRGRDPGALRPHDPAHRPLLRDPGPRRSESPPGPGGDASLLARLFEHPLYRVAVPPLTEEDVLFNVNSDTRLSPKAAENPDWPHAGAEGAEFLSPGEAAVDSYPNWLKFHIGINRYELYSRHNPAIEALLHDLSSQRITSVAMKSGGTQLKLIMTFQNYGQALFKPMKQTREQETPPDFFYFSDYERHNAEIAAFHLDRILDFRRVPPVAGRMVNMTKEIRDVTRDKKLWRTFFISPANNICFYGECSYYCSTEHALCGKPDQIEGSLAAFLPDLSLAKRKTWRNPWRRSYHKRKKAEWEVDPDYCEEVKQTPPYDSSHRILDVMDMTIFDFLMGNMDRHHYETFEKFGNETFIIHLANGRGFGKYSHDELSILVPLQQCCRIRKSTYLRLQLLAKEEYKLSLLMAESLRGDQVAPVLYQPHLEALDRRLRVVLKAVRDCVERNGLHSVVDDDLDTEHRAASAR [D478A]
